From PMC3017110

T1: QK RNA-binding domain (recombinant, purified) (UniProt Q9QYS9 1-213)
T1 sequence: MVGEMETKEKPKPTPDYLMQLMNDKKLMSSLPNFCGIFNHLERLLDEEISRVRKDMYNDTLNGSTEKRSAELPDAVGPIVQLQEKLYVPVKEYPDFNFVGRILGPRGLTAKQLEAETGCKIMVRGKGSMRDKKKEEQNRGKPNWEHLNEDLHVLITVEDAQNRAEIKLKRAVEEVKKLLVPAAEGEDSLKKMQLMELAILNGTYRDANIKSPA


Columns and labels:
[1] = target: T1, QK RNA-binding domain (recombinant, …); experiment: EMSA and fluorescence polarization; apparent Kd; EMSA on non-denaturing 5% polyacrylamide slab gel in 1x TBE; binding buffer, salt, pH and temperature not printed (per ref 64)
[2] = target: T1, QK RNA-binding domain (recombinant, …); experiment: competition; competes with Mbp QSBE; Kc,app value only in figure; EMSA on non-denaturing 5% polyacrylamide slab gel in 1x TBE; binding buffer, salt, pH and temperature not printed (per ref 64)
[3] = target: T1, QK RNA-binding domain (recombinant, …); experiment: EMSA; three fragments; does not bind with high affinity; EMSA on non-denaturing 5% polyacrylamide slab gel in 1x TBE; binding buffer, salt, pH and temperature not printed (per ref 64)

Binder | Kd [1] [nM] | other results
AACUCCAGGACUGUAUUUGUGACUAAUUGU (ssRNA) [Hnrnpa1 3' UTR QSBE WT, 30 nt] | 36 ± 2 | 
CAGUGCCCAUUGGUACACACUAACCUCG (ssRNA) [Mbp QSBE] | 44 ± 2 | 
UGUGACUAAUUG (ssRNA) [Hnrnpa1 12-nt RNA competitor] |  | binding result [2]: binds
GCUCAUUCUUUGGAGCGGGUGUGUCAUU (ssRNA) [Plp1 ESE fragments (three overlapping)] |  | binding result [3]: no binding
